Results reported in patent US20230357354A1, “CD38-BINDING CD31 PEPTIDES AND USES THEREOF” (ENCEFA, priority 2020, published 2023).

Test system: dopaminergic (TH^+) neurons in midbrain cultures
Test: MPP+ intoxication model: DA (TH+) cell survival in midbrain cultures
Format: cell-based, Wistar rat
Protocol: Animals were treated in accordance with the Guide for the Care and Use of Laboratory Animals (National Research Council, 1996), European Directive 86/609, and the guidelines of the local institutional animal care and use committee. Cultures were prepared from the ventral mesencephalon of gestational age 15.5 Wistar rat embryos (Janvier Breeding Center, Le Genest St Isle, France). Dissociated cells in suspension obtained by mechanical trituration of midbrain tissue pieces were seeded at a density of 1.2-1.5×10^5 cells/cm^2 onto tissue culture supports precoated with 1 mg/mL polyethylenimine diluted in borate buffer pH 8.3 as described (Michel et al., 1997. J Neurochem. 69(4):1499-507). The cultures were then maintained in N5 medium supplemented with 5 mM glucose, 5 % horse serum, and 0.5 % fetal calf serum, except for the first 3 DIV, when the concentration of fetal calf serum was 2.5% to favor initial maturation of the cultures (Guerreiro et al., 2008. Mol Pharmacol. 74(4):980-9). They were fed daily by replacing 70% of the medium. Routinely, mesencephalic cultures were established on Nunc 24-well culture plates (Thermofischer Scientific, Rochester, NY). Note that these cultures contain tyrosine hydroxylase (TH)^+ neurons that were exclusively dopaminergic (Traver et al., 2006. Mol Pharmacol. 70(1):30-40). […]

B1: murine sCD31: murine soluble CD31 (extracellular domain of CD31) having SEQ ID NO: 18, used in Example 1 (protein, listed as Mus musculus)
chain: MLLALGLTLVLYASLQAEENSFTINSIHMESLPSWEVMNGQQLTLECLVDISTTSKSRSQHRVLFYKDDAMVYNVTSREHTESYVIPQARVFHSGKYKCTVMLNNKEKTTIEYEVKVHGVSKPKVTLDKKEVTEGGVVTVNCSLQEEKPPIFFKIEKLEVGTKFVKRRIDKTSNENFVLMEFPIEAQDHVLVFRCQAGILSGFKLQESEPIRSEYVTVQESFSTPKFEIKPPGMIIEGDQLHIRCIVQVTHLVQEFTEIIIQKDKAIVATSKQSSEAVYSVMAMVEYSGHYTCKVESNRISKASSIMVNITELFPKPKLEFSSSRLDQGELLDLSCSVSGTPVANFTIQKEETVLSQYQNFSKIAEESDSGEYSCTAGIGKVVKRSGLVPIQVCEMLSKPSIFHDAKSEIIKGHAIGISCQSENGTAPITYHLMKAKSDFQTLEVTSNDPATFTDKPTRDMEYQCRADNCHSHPAVFSEILRVRVIAPVDEVVISILSSNEVQSGSEMVLRCSVKEGTSPITFQFYKEKEDRPFHQAVVNDTQAFWHNKQASKKQEGQYYCTASNRASSMRTSPRSSTLAVRVFL
modifications: Murine sCD31
EC50 of prevention of MPP^+-induced DA cell loss (3 µM MPP^+ between 5 and 7 DIV): 0.036 µg/mL
neuroprotective effect against MPP^+-induced DA cell death (MPP^+ 3 µM between 5 and 7 DIV, HB7 1 µg/mL): neuroprotective
